Data taken from article doi:10.1101/2023.01.16.523357.

Columns and labels:
[1] = molecular target: ΔN15MsDps2 (MsDps2 with the first 15 N-terminal amino acids deleted) (Mycobacterium smegmatis); assay: negative-stain electron microscopy
[2] = molecular target: Mycobacterium smegmatis Dps2 (MsDps2), wild type (Mycobacterium smegmatis); assay: SEC

| Substance | stoichiometry N [1] | stoichiometry N [2] |
| --- | --- | --- |
| ΔN15MsDps2 (MsDps2 with the first 15 N-terminal amino acids deleted) (domain or fragment) | 12 |  |
| Mycobacterium smegmatis Dps2 (MsDps2), wild type (natural protein) |  | 12 |
